Assay results published in patent publication US20180134765A1 (AVIDBIOTICS, published 2018).

T1: human NKG2D-Fc (human, UniProt P26718 78-216, limits assumed)
T1 construct: also called natural NKG2D-Fc; not shown: Fc part
T1 sequence (looked up): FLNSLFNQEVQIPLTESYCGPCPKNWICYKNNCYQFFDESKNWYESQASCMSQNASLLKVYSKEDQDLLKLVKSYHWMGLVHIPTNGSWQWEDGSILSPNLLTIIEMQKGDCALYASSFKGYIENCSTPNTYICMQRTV

T2: His-avitag-natural NKG2D (human, biotin on the avitag sequence (BirA))
T2 construct: also called natural NKG2D ectodomain; wild type NKG2D
T2 chain: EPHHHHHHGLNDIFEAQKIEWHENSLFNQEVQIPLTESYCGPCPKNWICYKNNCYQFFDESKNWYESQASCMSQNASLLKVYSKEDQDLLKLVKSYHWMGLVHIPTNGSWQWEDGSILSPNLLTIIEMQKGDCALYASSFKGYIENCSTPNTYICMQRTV

B1: ULBP6-α3-iFv.2 (designed binder)
chain: EPHSLCYDITVIPKFRPGPRWCAVQGQVDEKTFLHYDCGNKTVTPVSPLGKKLNVTTAWKAQNPVLREVVDILTEQLLDIQLENYTPKEPLTLQARMSCEQKAEGHSSGSWQFSIDGQTFLLFDSEKRMWTTVHPGARKMKEKWENDKDVAMSFHYISMGDCIGWLEDFLMGMDSTLEPSAGAPPMVQVTRSEASGGSGDRVTITCRASQDVSTAVAWYQQKPGKAPKLLIYSASFLYSGVPSRFSGSGSGTDFTLTISSLQPEDFATYYCQQSYTTPPTFGQGTKVEIKGGSSRSSSSGGGGSGGGGEVQLVESGGGLVQPGGSLRLSCAASGFTFTSTGISWVRQAPGKGLEWVGRIYPTNGSTNYADSVKGRFTISADTSKNTAYLQMNSLRAEDTAVYYCARTYGIYDLYVDYTEYVMDYWGQGTLVTVSSGGSSRSSSSGGGGSGGGGDIQMTQSPSSLSASGGSGQITVTCRASGFYPWNITLSWRQDGVSLSHDTQQWGDVLPDGQGTYQTWVATRISQGEEQRFTCYMEHSGQHSTHPVPSGKGSHHHHHH
notes: His-tagged, monomeric, insect cells; also called NKG2DL-α3-iFv.2 (ULBP6)
B2: wt MICA-Fv (designed binder)
chain: EPHSLRYNLTVLSWDGSVQSGFLTEVHLDGQPFLRCDRQKCRAKPQGQWAEDVLGNKTWDRETRDLTGNGKDLRMTLAHIKDQKEGLHSLQEIRVCEIHEDNSTRSSQHFYYDGELFLSQNLETKEWTMPQSSRAQTLAMNVRNFLKEDAMKTKTHYHAMHADCLQELRRYLKSGVVLRRTVPPMVQVTRSEASGGSGDRVTITCRASQDVSTAVAWYQQKPGKAPKLLIYSASFLYSGVPSRFSGSGSGTDFTLTISSLQPEDFATYYCQQSYTTPPTFGQGTKVEIKGGSSRSSSSGGGGSGGGGEVQLVESGGGLVQPGGSLRLSCAASGFTFTSTGISWVRQAPGKGLEWVGRIYPTNGSTNYADSVKGRFTISADTSKNTAYLQMNSLRAEDTAVYYCARTYGIYDLYVDYTEYVMDYWGQGTLVTVSSGGSSRSSSSGGGGSGGGGDIQMTQSPSSLSASGGSGQITVTCRASGFYPWNITLSWRQDGVSLSHDTQQWGDVLPDGQGTYQTWVATRISQGEEQRFTCYMEHSGQHSTHPVPSGKGSHHHHHH
notes: His-tagged α1-α2-α3-Fv fusion, made in 293 cells; also called natural α1-α2 domain α3-Fv fusion
B3: MICv42-Fv (designed binder)
chain: EPHSLRYNLTVLSWDGSVQSGFLTEVHLDGQPFLRCDRQKCRAKPQGQWAEDVLGNKTWDRETRDLTGWGKDLRMTLAHIKDQKEGLHSLQEIRVCEIHEDNSTRSSQHFYYDGELFLSQNLETLEWTMPQSSRAQTLAMNVRNFLKEDAMETDTHYHAMRADCLQELRRYLKSGVVLRRTVPPMVQVTRSEASGGSGDRVTITCRASQDVSTAVAWYQQKPGKAPKLLIYSASFLYSGVPSRFSGSGSGTDFTLTISSLQPEDFATYYCQQSYTTPPTFGQGTKVEIKGGSSRSSSSGGGGSGGGGEVQLVESGGGLVQPGGSLRLSCAASGFTFTSTGISWVRQAPGKGLEWVGRIYPTNGSTNYADSVKGRFTISADTSKNTAYLQMNSLRAEDTAVYYCARTYGIYDLYVDYTEYVMDYWGQGTLVTVSSGGSSRSSSSGGGGSGGGGDIQMTQSPSSLSASGGSGQITVTCRASGFYPWNITLSWRQDGVSLSHDTQQWGDVLPDGQGTYQTWVATRISQGEEQRFTCYMEHSGQHSTHPVPSGKGSHHHHHH
notes: His-tagged α1-α2-α3-Fv fusion; also called DSM42 α1-α2-α3-Fv fusion
B4: MICv48-Fv (designed binder)
chain: EPHSLRYNLTVLSWDGSVQSGFLTEVHLDGQPFLRCDRQKCRAKPQGQWAEDVLGNKTWDRETRDLTGWGKDLRMTLAHIKDQKEGLHSLQEIRVCEIHEDNSTRSSQHFYYDGELFLSQNLETLEWTMPQSSRAQTLAMNVRNFLKEDAMATDTHYIAMRADCLAELRRYLKSGVVLRRTVPPMVQVTRSEASGGSGDRVTITCRASQDVSTAVAWYQQKPGKAPKLLIYSASFLYSGVPSRFSGSGSGTDFTLTISSLQPEDFATYYCQQSYTTPPTFGQGTKVEIKGGSSRSSSSGGGGSGGGGEVQLVESGGGLVQPGGSLRLSCAASGFTFTSTGISWVRQAPGKGLEWVGRIYPTNGSTNYADSVKGRFTISADTSKNTAYLQMNSLRAEDTAVYYCARTYGIYDLYVDYTEYVMDYWGQGTLVTVSSGGSSRSSSSGGGGSGGGGDIQMTQSPSSLSASGGSGQITVTCRASGFYPWNITLSWRQDGVSLSHDTQQWGDVLPDGQGTYQTWVATRISQGEEQRFTCYMEHSGQHSTHPVPSGKGSHHHHHH
notes: His-tagged α1-α2-α3-Fv fusion; also called DSM48 α1-α2-α3-Fv fusion
B5: MICv28-Fv (designed binder)
chain: EPHSLRYNLTVLSWDGSVQSGFLTEVHLDGQPFLRCDRQKCRAKPQGQWAEDVLGNKTWDRETRDLTGNGKDLRMTLAHIKDQKEGLHSLQEIRVCEIHEDNSTRSSQHFYYDGELFLSQNLETLEWTMPQSSRAQTLAMNVRNFLKEDAMKTKTHYHAMRADCLSELRRYLKSGVVLRRTVPPMVQVTRSEASGGSGDRVTITCRASQDVSTAVAWYQQKPGKAPKLLIYSASFLYSGVPSRFSGSGSGTDFTLTISSLQPEDFATYYCQQSYTTPPTFGQGTKVEIKGGSSRSSSSGGGGSGGGGEVQLVESGGGLVQPGGSLRLSCAASGFTFTSTGISWVRQAPGKGLEWVGRIYPTNGSTNYADSVKGRFTISADTSKNTAYLQMNSLRAEDTAVYYCARTYGIYDLYVDYTEYVMDYWGQGTLVTVSSGGSSRSSSSGGGGSGGGGDIQMTQSPSSLSASGGSGQITVTCRASGFYPWNITLSWRQDGVSLSHDTQQWGDVLPDGQGTYQTWVATRISQGEEQRFTCYMEHSGQHSTHPVPSGKGSHHHHHH
notes: His-tagged α1-α2-α3-Fv fusion; also called DSM28 α1-α2-α3-Fv fusion
B6: MICv25-Fv (designed binder)
chain: EPHSLRYNLTVLSWDGSVQSGFLTEVHLDGQPFLRCDRQKCRAKPQGQWAEDVLGNKTWDRETRDLTGWGKDLRMTLAHIKDQKEGLHSLQEIRVCEIHEDNSTRSSQHFYYDGELFLSQNLETLEWTMPQSSRAQTLAMNVRNFLKEDAMETDTHYHAMRADCLSELRRYLKSGVVLRRTVPPMVQVTRSEASGGSGDRVTITCRASQDVSTAVAWYQQKPGKAPKLLIYSASFLYSGVPSRFSGSGSGTDFTLTISSLQPEDFATYYCQQSYTTPPTFGQGTKVEIKGGSSRSSSSGGGGSGGGGEVQLVESGGGLVQPGGSLRLSCAASGFTFTSTGISWVRQAPGKGLEWVGRIYPTNGSTNYADSVKGRFTISADTSKNTAYLQMNSLRAEDTAVYYCARTYGIYDLYVDYTEYVMDYWGQGTLVTVSSGGSSRSSSSGGGGSGGGGDIQMTQSPSSLSASGGSGQITVTCRASGFYPWNITLSWRQDGVSLSHDTQQWGDVLPDGQGTYQTWVATRISQGEEQRFTCYMEHSGQHSTHPVPSGKGSHHHHHH
notes: His-tagged α1-α2-α3-Fv fusion; also called DSM25 α1-α2-α3-Fv fusion
B7: MICv49-Fv (designed binder)
chain: EPHSLRYNLTVLSWDGSVQTGFLTEVHLDGQPFLRCDRQKCRAKPQGQWAEDVLGNKTWDRETRDLTQWGKDLRMTLAHIKDQKEGLHSLQEIRVCEIHEDNSTRSSQHFYYDGELFLSQNLETKEWTMPQSSRAQTLAMNVRNFLKEDAMFTDTHYRAMTADCLTELRRYLKSGVVLRRTVPPMVQVTRSEASGGSGDRVTITCRASQDVSTAVAWYQQKPGKAPKLLIYSASFLYSGVPSRFSGSGSGTDFTLTISSLQPEDFATYYCQQSYTTPPTFGQGTKVEIKGGSSRSSSSGGGGSGGGGEVQLVESGGGLVQPGGSLRLSCAASGFTFTSTGISWVRQAPGKGLEWVGRIYPTNGSTNYADSVKGRFTISADTSKNTAYLQMNSLRAEDTAVYYCARTYGIYDLYVDYTEYVMDYWGQGTLVTVSSGGSSRSSSSGGGGSGGGGDIQMTQSPSSLSASGGSGQITVTCRASGFYPWNITLSWRQDGVSLSHDTQQWGDVLPDGQGTYQTWVATRISQGEEQRFTCYMEHSGQHSTHPVPSGKGSHHHHHH
notes: His-tagged α1-α2-α3-Fv fusion; also called DSM49 α1-α2-α3-Fv fusion
B8: MICv20-Fv (designed binder)
chain: EPHSLRYNLTVLSWDGSVQSGFLTEVHLDGQPFLRCDRQKCRAKPQGQWAEDVLGNKTWDRETRDLTAWGKDLRMTLAHIKDQKEGLHSLQEIRVCEIHEDNSTRSSQHFYYDGELFLSQNLETLEWTMPQSSRAQTLAMNVRNFLKEDAMQTDTHYRAMHADCLFELRRYLKSGVVLRRTVPPMVQVTRSEASGGSGDRVTITCRASQDVSTAVAWYQQKPGKAPKLLIYSASFLYSGVPSRFSGSGSGTDFTLTISSLQPEDFATYYCQQSYTTPPTFGQGTKVEIKGGSSRSSSSGGGGSGGGGEVQLVESGGGLVQPGGSLRLSCAASGFTFTSTGISWVRQAPGKGLEWVGRIYPTNGSTNYADSVKGRFTISADTSKNTAYLQMNSLRAEDTAVYYCARTYGIYDLYVDYTEYVMDYWGQGTLVTVSSGGSSRSSSSGGGGSGGGGDIQMTQSPSSLSASGGSGQITVTCRASGFYPWNITLSWRQDGVSLSHDTQQWGDVLPDGQGTYQTWVATRISQGEEQRFTCYMEHSGQHSTHPVPSGKGSHHHHHH
notes: His-tagged α1-α2-α3-Fv fusion; also called DSM20 α1-α2-α3-Fv fusion
B9: MICv27-Fv (designed binder)
chain: EPHSLRYNLTVLSWDGSVQSGFLTEVHLDGQPFLRCDRQKCRAKPQGQWAEDVLGNKTWDRETRDLTGWGKDLRMTLAHIKDQKEGLHSLQEIRVCEIHEDNSTRSSQHFYYDGELFLSQNLETLEWTMPQSSRAQTLAMNVRNFLKEDAMKTKTHYHAMRADCLSELRRYLKSGVVLRRTVPPMVQVTRSEASGGSGDRVTITCRASQDVSTAVAWYQQKPGKAPKLLIYSASFLYSGVPSRFSGSGSGTDFTLTISSLQPEDFATYYCQQSYTTPPTFGQGTKVEIKGGSSRSSSSGGGGSGGGGEVQLVESGGGLVQPGGSLRLSCAASGFTFTSTGISWVRQAPGKGLEWVGRIYPTNGSTNYADSVKGRFTISADTSKNTAYLQMNSLRAEDTAVYYCARTYGIYDLYVDYTEYVMDYWGQGTLVTVSSGGSSRSSSSGGGGSGGGGDIQMTQSPSSLSASGGSGQITVTCRASGFYPWNITLSWRQDGVSLSHDTQQWGDVLPDGQGTYQTWVATRISQGEEQRFTCYMEHSGQHSTHPVPSGKGSHHHHHH
notes: His-tagged α1-α2-α3-Fv fusion; also called DSM27 α1-α2-α3-Fv fusion

target: T1, human NKG2D-Fc; test: ELISA: protein captured on FGFR3 detected with NKG2D-Fc

Binder	binding result
B1	binds

Target: T2, His-avitag-natural NKG2D
Test: biolayer interferometry (Octet), biotinylated natural NKG2D ectodomain on the surface, 100 nM fusion protein

Binder	Kd [nM]	koff [s⁻¹]	kon [M⁻¹ s⁻¹]
B2	13.8	0.0018	130000
B3	0.109	3.78e-05	347000
B4	0.244	0.000145	595000
B5	0.33	7.03e-05	246000
B6	0.0616	2.88e-05	467000
B7	0.746	2.76e-05	37000
B8	0.0851	3.05e-05	359000
B9	0.411	8.54e-05	208000
